Assay results reported in the supplement of paper PMC7125110.
± gives the standard error. For some assays here: Fewer inactive variants are shown than the library holds.

B1: glmS ribozyme (parent)
chain: AUAAAAGCGCCAGAACUACAGAAAUGUAGUUGACGAGGAGGAGGUUUAUCGAAUUUUCGGCGGAUGCCUCCAAA

Columns and labels:
Details in all cases: with glucosamine-6-phosphate
[1] = variants of: B1; assay: kcat; higher = faster cleavage; RNA array
In short: (§1)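 A hybridised Cy3 probe tracked barcoded ribozyme variants, transcribed in situ by E. coli RNA polymerase on sequenced MiSeq chips, at 37 °C. The variants received 40 μM to 10 mM glucosamine-6-phosphate in HEPES/KCl/Mg(OAc)2 buffer. kobs came from decay fits and kcat and KM from weighted Michaelis–Menten fits.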

[2] = variants of: B1; assay: KM; higher = weaker cofactor use; RNA array
In short: as §1

[3] = variants of: B1; assay: self-cleavage kobs at 640 uM GlcN6P; higher = faster cleavage; RNA array
In short: as §1

[4] = variants of: B1; assay: self-cleavage kobs at 2500 uM GlcN6P; higher = faster cleavage; RNA array
In short: as §1

[5] = variants of: B1; assay: self-cleavage kobs at 10000 uM GlcN6P; higher = faster cleavage; RNA array
In short: as §1

[6] = variants of: B1; assay: self-cleavage kobs at 40 uM GlcN6P; higher = faster cleavage; RNA array
In short: as §1

[7] = variants of: B1; assay: self-cleavage kobs at 160 uM GlcN6P; higher = faster cleavage; RNA array
In short: as §1

| Variant | kcat [1] | KM [2] | self-cleavage kobs at 640 uM GlcN6P [3] | self-cleavage kobs at 2500 uM GlcN6P [4] | self-cleavage kobs at 10000 uM GlcN6P [5] | self-cleavage kobs at 40 uM GlcN6P [6] | self-cleavage kobs at 160 uM GlcN6P [7] |
| --- | --- | --- | --- | --- | --- | --- | --- |
| AUAAAAGCGCCAGAACUACAGAAAUGUAGUUGACGAGGAGGAGGUUCAUCGAAUUUUCGGCGGAUGCGUCCAAA | 6.88e-05 ± 2.3e-06 s⁻¹ | 573 ± 80 µM | 3.62e-05 ± 7.3e-06 s⁻¹ | 5.33e-05 ± 1.1e-05 s⁻¹ | 6.6e-05 ± 7.8e-06 s⁻¹ |  |  |
| AUAAAAGCGCCAGAACUACAGAAAUGUAGUUGACGAGGAGGAGGUUCAUCGAAUUCUCGGCGGGUGCCUCCAAA | 6.84e-05 ± 1.6e-05 s⁻¹ |  | 6.85e-05 ± 1.9e-05 s⁻¹ | 5.93e-05 ± 1.5e-05 s⁻¹ |  |  |  |
| AUAAAAGCGCCAGAACUACAGAAAUGUAGUUGACGAGGAGGAGGUUCAUCGAAUUUUCGGCGAAUGCCUCCAAA | < 1e-05 s⁻¹ |  | < 1e-05 s⁻¹ |  |  |  |  |
| AUAAAAGCGCCAGAACUACAGAAAUGUAGUUGACGAGGAGGAGGUUCAUCGAAUUUUCGGCGGAUACCUCCAAA | 0.00207 ± 0.00059 s⁻¹ | 1050 ± 470 µM | 0.000815 ± 0.0002 s⁻¹ | 0.00159 ± 0.00037 s⁻¹ | 0.00183 ± 0.0004 s⁻¹ | 0.000111 ± 2.1e-05 s⁻¹ | 0.00017 ± 6.1e-05 s⁻¹ |
| AUAAAAGCGCCAGAACUACAGAAAUGUAGUUGACGAGGAGGAGGUUCAUCGAAUUUUCGGCGGAUUCCUCCAAA | 2.83e-05 ± 1.3e-05 s⁻¹ |  |  |  |  | < 1e-05 s⁻¹ |  |
| AUAAAAGCGCCAGAACUACAGAAAUGUAGUUGACGAGGAGGAGGUUCAUCGAAUGUUCGGCGGAUGCCUCCAAA | 0.0038 ± 0.00044 s⁻¹ | 1640 ± 260 µM | 0.0011 ± 0.00014 s⁻¹ | 0.00161 ± 0.00035 s⁻¹ | 0.00347 ± 0.00028 s⁻¹ | 9.2e-05 ± 7.2e-06 s⁻¹ | 0.000341 ± 4.2e-05 s⁻¹ |
| AUAAAAGCGCCAGAACUACAGAAAUGUAGUUGACGAGGAGGAGGUUCAUCGAAAUUUCGGCGGAUGCCUCCAAA | 0.00447 ± 0.00014 s⁻¹ | 1630 ± 77 µM | 0.00127 ± 0.00023 s⁻¹ | 0.00275 ± 0.00072 s⁻¹ | 0.00384 ± 0.00049 s⁻¹ | 0.000112 ± 1.8e-05 s⁻¹ | 0.00038 ± 7.2e-05 s⁻¹ |
| AUAAAAGCGCCAGAACUACAGAAAUGUAGUUGACGAGGAGGAGGUUAAUCGAAUCUUCGGCGGAUGCCUCCAAA | 0.0198 ± 0.0084 s⁻¹ |  | 0.00441 ± 0.0013 s⁻¹ | 0.0089 ± 0.0023 s⁻¹ | 0.024 ± 0.0055 s⁻¹ | 0.000537 ± 8.5e-05 s⁻¹ | 0.00116 ± 0.00033 s⁻¹ |
| AUAAAAGCGCCAGAACUACAGAAAUGUAGUUGACGAGGAGGAGGUUGAUCGACUUUUCGGCGGAUGCCUCCAAA | 0.00406 ± 0.001 s⁻¹ | 2510 ± 860 µM | 0.000873 ± 0.00013 s⁻¹ | 0.00196 ± 0.00025 s⁻¹ | 0.00439 ± 0.0019 s⁻¹ | 0.000103 ± 3.4e-05 s⁻¹ | 0.000223 ± 3.9e-05 s⁻¹ |
| AUAAAAGCGCCAGAACUACAGAAAUGUAGUUGACGAGGAGGAGGUUCAUCGAAUUUUCGGCGGAUGGCUCCAAA | 0.000337 ± 4.8e-05 s⁻¹ | 1740 ± 450 µM | 8.28e-05 ± 9.1e-06 s⁻¹ | 0.000239 ± 3.4e-05 s⁻¹ | 0.000279 ± 3.1e-05 s⁻¹ |  | 3.84e-05 ± 8.3e-06 s⁻¹ |
| AUAAAAGCGCCAGAACUACAGAAAUGUAGUUGACGAGGAGGAGGUUCAUGGAAUUUUCGGCGGAUGCCUCCAAA | < 1e-05 s⁻¹ |  | < 1e-05 s⁻¹ |  |  |  |  |
| AUAAAAGCGCCAGAACUACAGAAAUGUAGUUGACGAGGAGGAGGUUCAUCGGAUUUUCGGCGGAUGCCUCCAAA | 0.000596 ± 8.2e-05 s⁻¹ | 3550 ± 750 µM | 9.21e-05 ± 1.5e-05 s⁻¹ | 0.000226 ± 4.3e-05 s⁻¹ | 0.000465 ± 8.9e-05 s⁻¹ |  | 3.5e-05 ± 1.7e-05 s⁻¹ |
| AUAAAAGCGCCAGAACUACAGAAAUGUAGUUGACGAGGAGGAGGUUCUUCGAAUUUUCGGCGGAUGCCUCCAAA | 0.000264 ± 3.4e-05 s⁻¹ | 1270 ± 340 µM | 9.41e-05 ± 2.5e-05 s⁻¹ | 0.000174 ± 3.2e-05 s⁻¹ |  |  |  |
| AUAAAAGCGCCAGAACUACAGAAAUGUAGUUGACGAGGAGGAGGUUCAGCGAAUUUUCGGCGGAUGCCUCCAAA | 0.000198 ± 1.4e-05 s⁻¹ | 1240 ± 220 µM | 6.46e-05 ± 1.7e-05 s⁻¹ | 0.000146 ± 3.2e-05 s⁻¹ | 0.000169 ± 3.6e-05 s⁻¹ |  |  |
| AUAAAAGCGCCAGAACUACAGAAAUGUAGUUGACGAGGAGGAGGUUAAUCGAAUUUUCGGCGGAUGCCACCAAA | 9.51e-05 ± 1.3e-05 s⁻¹ |  | 8.57e-05 ± 2.5e-05 s⁻¹ | 0.000188 ± 8e-05 s⁻¹ | 8.87e-05 ± 2e-05 s⁻¹ |  | 0.00011 ± 4.9e-05 s⁻¹ |
| AUAAAAGCGCCAGAACUACAGAAAUGUAGUUGACGAGGAGGAGGUUCAUCGAAUUUCCGGCGGAUGCCUCCAAA | 6.99e-05 ± 7.5e-06 s⁻¹ |  |  | 5.62e-05 ± 1.1e-05 s⁻¹ | 6.24e-05 ± 9.4e-06 s⁻¹ |  |  |
